Test results published in US20190016790A1 (MEDICINAL BIOCONVERGENCE RESEARCH CENTER, published 2019).
One block for each binder: values may come before it.

Experiments:
[1] = molecular target: T1, recombinant PICP α2 chain (c-Myc tag at the N-terminus) (human, UniProt P08123 1120-1366); test: Western blot (anti-His, anti-c-Myc) of Ni/NTA-purified recombinant PICP, non-reducing and reducing SDS-PAGE
T1 construct: Co-expressed with the α1 chain in HEK293F cells; also called recombinant procollagen α2 chain; not shown: c-Myc tag at the N-terminus
T1 sequence: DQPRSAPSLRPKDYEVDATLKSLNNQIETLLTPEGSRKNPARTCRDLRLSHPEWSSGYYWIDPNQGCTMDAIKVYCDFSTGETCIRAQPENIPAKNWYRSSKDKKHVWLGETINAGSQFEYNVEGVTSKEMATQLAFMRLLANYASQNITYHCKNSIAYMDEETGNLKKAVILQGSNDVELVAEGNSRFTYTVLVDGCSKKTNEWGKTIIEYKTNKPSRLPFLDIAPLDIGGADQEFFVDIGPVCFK
Protocol: The pSecTag2A-PICP α1 vector and the pSecTag2A-PICP α2 vector were mixed at a molar ratio of 2:1, and co-transfected into HEK293F cells. The co-transfected cells were cultured for 7 days, and culture supernatants were harvested, and the proteins were isolated and purified by the same method as in example <1-2>. PIIICP protein was also expressed, isolated, and purified by the same method. The sizes and purities of the purified proteins were analyzed using SDS-PAGE and western blotting (anti-His tag, anti-c-Myc tag) in reducing or non-reducing conditions.

[2] = molecular target: T2, recombinant procollagen type III C-terminal propeptide (PIIICP), His-tagged (UniProt P02461 1222-1466); test: sandwich ELISA, 2D IgG coated at 16 ug/ml as capture antibody, PIIICP titrated, rabbit anti-PICP antibody and goat anti-rabbit IgG-HRP for detection
T2 construct: domain: C-terminal propeptide; Made in HEK293F cells in the same way as PICP; also called comparative antigen; not shown: His tag conjugated to the PIIICP protein
T2 sequence (looked up): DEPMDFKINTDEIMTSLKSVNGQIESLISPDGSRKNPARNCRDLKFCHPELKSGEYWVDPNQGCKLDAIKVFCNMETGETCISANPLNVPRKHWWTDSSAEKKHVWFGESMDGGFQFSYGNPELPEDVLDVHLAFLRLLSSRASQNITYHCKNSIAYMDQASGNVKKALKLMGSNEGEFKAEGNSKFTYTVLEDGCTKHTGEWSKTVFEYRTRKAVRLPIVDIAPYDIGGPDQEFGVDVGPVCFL

[3] = molecular target: T3, recombinant PICP protein (procollagen type I C-terminal propeptide), heterotrimer of two PICP α1 chains and … (human, UniProt P02452 1219-1464; P08123 1120-1366); test: SPR, Biacore 2000, PICP immobilized (185 RU), IgG 6.25-100 nM
T3 construct: Biotinylated for the yeast Fab selection; also called recombinant PICP antigen; PIPC; not shown: 8xHis tag conjugated to the N-terminus of the α1 chain; c-Myc tag conjugated to the N-terminus of the α2 chain
Text: Specific experiment conditions are as follows.
The affinity was obtained from kinetic rate constants (ka and kd) and equilibrium dissociation constants (KD) using BIA evaluation ver. 3.2 software.

[4] = molecular target: T2, recombinant procollagen type III …; test: indirect ELISA, PIIICP coated at 2 ug/ml, anti-human IgG-HRP
Protocol: PICP and PIIICP antigens prepared in <Example 1> were immobilized at a concentration of 2 ug/ml on microtiter plates at room temperature for 1 hour, and blocked with 1×PBST containing 2% skim milk at room temperature for 1 hour. 2D IgG and 4G IgG were serially diluted within a range of 15.625-1000 ng/ml, and added at 100 μl per well to the blocked plates, followed by incubation at room temperature for 1 hour. Human IgG-HRP antibodies (Millipore, 1:2,000) as secondary antibodies were added at 10 μl per well, followed by incubation at room temperature for 1 hour. The incubated microtiter plates were washed three or four times with 1×PBST, and then TMB solution was added at 50 μl per well to conduct a color development reaction at room temperature for 5-10 minutes. The color development reaction was stopped using H₂SO₄ (1 M), and then the absorbance was read at 450 nm using ELISA reader.

[5] = molecular target: T3, recombinant PICP protein (procollagen …); test: sandwich ELISA, IgG coated as capture antibody, PICP titrated, polyclonal PICP antibody and anti-rabbit-HRP for detection
Protocol: The binding specificity to PICP by IgG fragment having VH and VL of clones 1 and 2 (referred to as clone IgG and clone 2 IgG) was investigated by sandwich ELISA (FIG. 9).
2D, 4G, clone 1, clone 2 IgG antibodies as capture antibodies were coated on the microtiter plates, and PICP and PIIICP as antigens were added to each well (100 μl/well) at different concentrations, followed by incubation for 1 hour. After washing with 1×PBST (0.05 Tween 20), detection antibodies (polyclonal PICP antibodies) were diluted with 1×PBST, and added in 100 μl for each, followed by incubation for 1 hour. After washing with 1×PBST, rabbit-HRP (Millipore) antibodies were diluted with 1×PBST, and added in 100 μl for each, followed by incubation for 1 hour. After washing with 1×PBST, TMB solution was added to each well (50 μl/well) to investigate a color development reaction, and then the reaction was stopped by addition of 50 μl of 2N stop solution (H₂SO₄). The absorbance was read at a wavelength of 450 nm using ELISA reader (reference 620 nm).

[6] = molecular target: T3, recombinant PICP protein (procollagen …); test: yeast surface Fab display, MACS and FACS with biotinylated PICP
Protocol: A method of selecting clones specifically binding to PICP proteins from the yeast Fab library are as follows: Antigen protein PICP and similar protein PIIICP were prepared with purity of 99% or higher by the method of the present invention. The PICP proteins were conjugated to biotin using a kit (EZ-LINKTMSulfo-NHS-LC-Biotinylation kit, Pierce Inc., USA). Thereafter, a procedure of screening the constructed libraries using MACS and FACS and analyzing the induced pool was repeated. Through this, the expression level of antibody Fab and the binding affinity of biotinylated PICP can be analyzed.
The biotinylated PICP (500 nM) was conjugated to Fab library expressed on the yeast cell surface at 25° C. for 1 hour. The Fab library incubated with PICP was conjugated with streptavidin-microbead (Miltenyi Biotec Inc., Germany) at 4° C. for 10 minutes, and then clones conjugated with the biotinylated PICP were selected using magnetic-activated cell sorting (MACS). […] Thereafter, FACS procedure was twice repeated using biotinylated PICP with concentrations of 250 nM and 100 nM. […]

[7] = molecular target: T3, recombinant PICP protein (procollagen …); test: indirect ELISA, PICP coated at 2 ug/ml, anti-HA-HRP

B1: recombinant PICP α1 chain (8xHis tag at the N-terminus) (other)
chain: DDANVVRDRDLEVDTTLKSLSQQIENIRSPEGSRKNPARTCRDLKMCHSDWKSGEYWIDPNQGCNLDAIKVFCNMETGETCVYPTQPSVAQKNWYISKNPKDKRHVWFGESMTDGFQFEYGGQGSDPADVAIQLTFLRLMSTEASQNITYHCKNSVAYMDQQTGNLKKALLLQGSNEIEIRAEGNSRFTYSVTVDGCTSHTGAWGKTVIEYKTTKTSRLPIIDVAPLDVGAPDQEFGFDVGPVCFL
notes: Co-expressed with the α2 chain in HEK293F cells; also called recombinant procollagen α1 chain; not shown: 8xHis tag at the N-terminus
binding result [1]: binds

B3: 4G IgG (antibody, V domains shown)
VH: EVQLLESGGGLVQPGGSLRLSCAASGFTFSNYYMSWVRQAPGKGLEWVSLISSGNGNKYYADSVKGRFTISRDNSKNTLYLQMNSLRAEDTAVYYCARGSRRCSGAPCYSAYGMDVWGQGTLVTVSS
VL: QSVLTQPPSASGTPGQRVTISCTGSSSNIGNNSVTWYQQLPGTAPKLLIYANSQRPSGVPDRFSGSKSGTSASLAISGLRSEDEADYYCGAWDDSLNAYVFGGGTKLTVLG
notes: IgG made from 4G scFv VH and VL in pcDNA3.4 and expressed in 293F cells; Detected with human IgG-HRP; also called IgG containing the variable regions of clone 4G
Kd [3]: 0.0168 µM
koff [3]: 0.00319 s⁻¹
kon [3]: 190000 M⁻¹ s⁻¹
binding result [4]: no binding (tested: 1000 ng/ml)

B4: clone 2 IgG (antibody, V domains shown)
VH: EVQLVESGGGLVQPGGSLRLSCAASGFTFSSYWMSWVRQAPGKGLEWVSVISYDGGNKYYADSVKGRFTISRDNSKNTLYLQMNSLRAEDTAVYYCAKWANDHNSDLNFDYWGQGTLVTVSS
VL: DIQMTQSPSSLSASVGDRVTITCRASQGISTDLGWYQQKPGKAPKLLIYAASSLESGVPSRFSGSGSGTDFTLTISSLQPEDFATYYCQQHDSYPTTFGQGTKVEIKR
notes: Chimeric: human Fab VH and VL of yeast clone 2 on mouse IgG2a heavy chain constant domains and mouse kappa light chain
binding result [5]: binds

B5: clone 1 IgG (antibody, V domains shown)
VH: EVQLVESGGGLVQPGGSLRLSCAASGFTFSYYWMSWVRQAPGKGLEWVSTISYGGGGKYYADSVKGRFTISRDNSKNTLYLQMNSLRAEDTAVYYCVRSYGAIPPNTIDYWGQGTLVTVSS
VL: DIQMTQSPSSLSASVGDRVTITCRASQGISSDLAWYQQKPGKAPKLLIYAASSLQSGVPSRFSGSGSGTDFTLTISSLQPEDFATYYCQQPYSTPSTFGQGTKVEIKR
notes: Chimeric: human Fab VH and VL of yeast clone 1 on mouse IgG2a heavy chain constant domains and mouse kappa light chain; also called clone IgG
binding result [5]: binds

B7: 2D scFv (scFv)
chain: EVQLLESGGGLVQPGGSLRLSCAASGFTFSSYYMSWVRQAPGKGLEWVSGISPGSGSKYYADSVKGRFTISRDNSKNTLYLQMNSLRAEDTAVYYCARATVPCKGPACYSAYGMDVWGQGTLVTVSSGGGGSGGGGSGGGGSQSVLTQPPSAPGTPGQRVTISCSGSSSNIGNNAVNWYQQLPGTAPKLLIYSNSHRPSGVPDRFSGSKSGTSASLAISGLRSEDEADYYCGSWDASLNGYVFGGGTKLTVLG
EC50 (read off the curve) [7]: ~0.3 mg/L

B8: 4G scFv (scFv)
chain: EVQLLESGGGLVQPGGSLRLSCAASGFTFSNYYMSWVRQAPGKGLEWVSLISSGNGNKYYADSVKGRFTISRDNSKNTLYLQMNSLRAEDTAVYYCARGSRRCSGAPCYSAYGMDVWGQGTLVTVSSGGGGSGGGGSGGGGSQSVLTQPPSASGTPGQRVTISCTGSSSNIGNNSVTWYQQLPGTAPKLLIYANSQRPSGVPDRFSGSKSGTSASLAISGLRSEDEADYYCGAWDDSLNAYVFGGGTKLTVLG
EC50 (read off the curve) [7]: ~0.1 mg/L

Next, values leading:

binding result [2]: no binding (tested: 100 ng/ml)
Kd [3]: 0.0116 µM
koff [3]: 0.00276 s⁻¹
kon [3]: 237000 M⁻¹ s⁻¹
B2: 2D IgG (antibody, V domains shown)
VH: EVQLLESGGGLVQPGGSLRLSCAASGFTFSSYYMSWVRQAPGKGLEWVSGISPGSGSKYYADSVKGRFTISRDNSKNTLYLQMNSLRAEDTAVYYCARATVPCKGPACYSAYGMDVWGQGTLVTVSS
VL: QSVLTQPPSAPGTPGQRVTISCSGSSSNIGNNAVNWYQQLPGTAPKLLIYSNSHRPSGVPDRFSGSKSGTSASLAISGLRSEDEADYYCGSWDASLNGYVFGGGTKLTVLG
notes: IgG made from 2D scFv VH and VL in pcDNA3.4 and expressed in 293F cells; Detected with human IgG-HRP; also called IgG containing the variable regions of clone 2D

binding result [6]: binds
B6: clone 2 Fab (Fab, V domains shown)
VH: EVQLVESGGGLVQPGGSLRLSCAASGFTFSSYWMSWVRQAPGKGLEWVSVISYDGGNKYYADSVKGRFTISRDNSKNTLYLQMNSLRAEDTAVYYCAKWANDHNSDLNFDYWGQGTLVTVSS
VL: DIQMTQSPSSLSASVGDRVTITCRASQGISTDLGWYQQKPGKAPKLLIYAASSLESGVPSRFSGSGSGTDFTLTISSLQPEDFATYYCQQHDSYPTTFGQGTKVEIK

binding result [6]: binds
B9: clone 1 Fab (Fab, V domains shown)
VH: EVQLVESGGGLVQPGGSLRLSCAASGFTFSYYWMSWVRQAPGKGLEWVSTISYGGGGKYYADSVKGRFTISRDNSKNTLYLQMNSLRAEDTAVYYCVRSYGAIPPNTIDYWGQGTLVTVSS
VL: DIQMTQSPSSLSASVGDRVTITCRASQGISSDLAWYQQKPGKAPKLLIYAASSLQSGVPSRFSGSGSGTDFTLTISSLQPEDFATYYCQQPYSTPSTFGQGTKVEIK
